Test results as given in the supplement of paper PMC10567573.

Assay: protein stability index of a GFP-peptide fusion (GPS, HEK-293T) (PSI 1-6); higher = more stable
Settings: c terminus: native
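Note: lentivirally expressed fusion library, cells FACS-sorted into six equal-sized GFP/DsRed ratio bins, PSI computed from sequencing read fractions per bin weighted by bin number.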

## DGWIRVSSDNVADLHEKYSGSTPL [PSMB5 addL]
parent: NP_002788.1
  protein stability index: 3.47

## CQPISFSGFGAEDDDLGGLGLGPL [POLD2 addL]
parent: NP_006221.1
  protein stability index: 2.66

## LPALFTDLYSQEITAEEAREALPL [SNF8 addL]
parent: NP_009172.2
  protein stability index: 3.71

## EQRNSRWNTVLRAVKAKTHHLEPL [TRPA1 addL]
parent: NP_015628.1
  protein stability index: 4.2
